Measurements published in publication PMC9482650, “Quantitative fragmentomics allow affinity mapping of interactomes” (Nature Communications, 2022).

Assays:
Test in all cases: PDZ-AP-MS, biotinylated MBP-PDZ baits
Type in all cases: binding, human
[1] = test system: HeLa cell extract preys; settings: for Ratio: fold enrichment of prey; for Difference: log2 enrichment of prey
Method: (§1) For PDZ-AP-MS experiments, PDZ domains were cloned as His6-AviTag-MBP-PDZ constructs. For co-expression with BirA, E. coli BL21(DE3) cells were co-transformed with His6-AviTag-MBP, or His6-AviTag-MBP-PDZ-coding and PET21a-BirA (Addgene #20857) plasmids. Simultaneously to IPTG induction, 50 µM biotin was added to the media. After cell harvesting, the lysis buffer was also supplemented with 50 µM biotin. Otherwise, expression and double affinity purification was identical as previously described in details.
(§2) For PBM-AP-MS experiments, 30 μl streptavidin resin was mixed with biotin or peptide at 50–60 μM concentration in 6–6.5 resin volume for 60 min to achieve resin saturation. For PDZ-AP-MS experiments, 30 μl streptavidin resin was mixed with biotinylated MBP or MBP-PDZ at 40-50 μM concentration in >1000× resin volume for 60 min to achieve resin saturation. After saturation, resins were washed a single time (ten resin volume, holdup buffer), and were depleted with biotin (1 mM biotin, 5–10 resin volume, 10 min). Finally, resins were washed two times. 0.5 ml 2 mg/ml cell lysate was added to the dry resin (1 mg total input) and were incubated at 4 °C for 2 h. Then, the beads were washed three times with 10 resin volume buffer containing: 50 mM TRIS pH 8.5, 150 mM NaCl, 1% TritonX-100, 10× complete EDTA-free protease inhibitor cocktail, 2 mM EDTA, 1 mM TCEP. Then, the beads were washed two times with ten resin volume buffer containing: 50 mM TRIS pH 8.5, 150 mM NaCl, 1 mM TCEP. Finally, captured protein was eluted from the resin in two steps and the eluted fractions were pooled. For each elution the beads were incubated for 30 min with three resin volume buffer containing: 20 mM TRIS pH8.5, 100 mM NaCl, 500 μM TCEP, 8 M Urea. Between each step, the beads were separated by mild centrifugation and the supernatant was removed by gentle pipetting.
(§3) The samples were precipitated with TCA 20% overnight at 4 °C and centrifuged at 14,000 rpm for 10 min at 4 °C. The protein pellets were washed twice with 1 mL cold acetone and air dried. The protein extracts were solubilized in urea 8 M, reduced with 5 mM TCEP for 30 min, and alkylated with 10 mM iodoacetamide for 30 min in the dark. Double digestion was performed at 37 °C with 500 ng endoproteinase Lys-C for 4 h, followed by fourfold dilution and an overnight digestion with 500 ng trypsin. Peptide mixtures were then desalted on C18 spin-column and dried on Speed-Vacuum.
(§4) Samples were analyzed using an Ultimate 3000 nano-RSLC (Thermo Scientific, San Jose California) coupled in line with a LTQ-Orbitrap ELITE mass spectrometer via a nano-electrospray ionization source (Thermo Scientific, San Jose California). Peptide mixtures were injected in 0.1% TFA on a C18 Acclaim PepMap100 trap-column (75 µm ID × 2 cm, 3 µm, 100 Å, Thermo Fisher Scientific) for 3 min at 5 µL/min with 2% ACN, 0.1% FA in H2O and then separated on a C18 Accucore nano-column (75 µm ID × 50 cm, 2.6 µm, 150 Å, Thermo Fisher Scientific) at 220 nl/min and 38 °C with a 90 min linear gradient from 5% to 30% buffer B (A: 0.1% FA in H2O/B: 99% ACN, 0.1% FA in H2O), regeneration at 5% B. The mass spectrometer was operated in positive ionization mode, in data-dependent mode with survey scans from m/z 350–1500 acquired in the Orbitrap at a resolution of 120,000 at m/z 400. The 20 most intense peaks from survey scans were selected for further fragmentation in the Linear Ion Trap with an isolation window of 2.0 Da and were fragmented by CID with normalized collision energy of 35%. (TOP20CID method) Unassigned and single charged states were excluded from fragmentation. The Ion Target Value for the survey scans (in the Orbitrap) and the MS2 mode (in the Linear Ion Trap) were set to 1E6 and 5E3 respectively and the maximum injection time was set to 100 ms for both scan modes. Dynamic exclusion was set to 20 s after one repeat count with mass width at ±10 ppm. […]

[2] = test system: HaCat cell extract preys; settings: for Difference log2: bait TX1BP3 PDZ vs MBP, enrichment of prey; for Ratio TX1BP3/MBP: bait TX1BP3 PDZ, fold change of prey
Method: as §1, §2, §3, §4

[3] = test system: Jurkat cell extract preys; settings: for Difference log2: enrichment of prey
Method: as §1, §2, §3, §4

[4] = PDZ-AP-MS fold change of the PBM-protein prey, bait MBP-PDZ DLG1_1
[5] = PDZ-AP-MS fold change of the PBM-protein prey, bait MBP-PDZ DLG1_2
[6] = PDZ-AP-MS fold change of the PBM-protein prey, bait MBP-PDZ SCRIB_1
[7] = PDZ-AP-MS fold change of the PBM-protein prey, bait MBP-PDZ SCRIB_2
[8] = PDZ-AP-MS fold change of the PBM-protein prey, bait MBP-PDZ SNX27
[9] = PDZ-AP-MS fold change of the PBM-protein prey, bait MBP-PDZ TX1BP3

B1: CAPRIN1 (protein, UniProt Q14444 2-709, looked up)
Caprin-1: PSATSHSGSGSKSSGPPPPSGSSGSEAAAGAGAAAPASQHPATGTGAVQTEAMKQILGVIDKKLRNLEKKKGKLDDYQERMNKGERLNQDQLDAVSKYQEVTNNLEFAKELQRSFMALSQDIQKTIKKTARREQLMREEAEQKRLKTVLELQYVLDKLGDDEVRTDLKQGLNGVPILSEEELSLLDEFYKLVDPERDMSLRLNEQYEHASIHLWDLLEGKEKPVCGTTYKVLKEIVERVFQSNYFDSTHNHQNGLCEEEEAASAPAVEDQVPEAEPEPAEEYTEQSEVESTEYVNRQFMAETQFTSGEKEQVDEWTVETVEVVNSLQQQPQAASPSVPEPHSLTPVAQADPLVRRQRVQDLMAQMQGPYNFIQDSMLDFENQTLDPAIVSAQPMNPTQNMDMPQLVCPPVHSESRLAQPNQVPVQPEATQVPLVSSTSEGYTASQPLYQPSHATEQRPQKEPIDQIQATISLNTDQTTASSSLPAASQPQVFQAGTSKPLHSSGINVNAAPFQSMQTVFNMNAPVPPVNEPETLKQQNQYQASYNQSFSSQPHQVEQTELQQEQLQTVVGTYHGSPDQSHQVTGNHQQPPQQNTGFPRSNQPYYNSRGVSRGGSRGARGLMNGYRGPANGFRGGYDGYRPSFSNTPNSGYTQSQFSAPRDYSGYQRDGYQQNFKRGSGQSGPRGAPRGRGGPPRPNRGMPQMNTQQVN
- Ratio ([1]; bait DLG1_1 PDZ vs MBP control): 30.4665
- Difference ([1]; bait DLG1_1 PDZ vs MBP control): 4.929

B2: ALDH9A1 (protein, UniProt P49189 1-494, looked up)
4-trimethylaminobutyraldehyde …: MSTGTFVVSQPLNYRGGARVEPADASGTEKAFEPATGRVIATFTCSGEKEVNLAVQNAKAAFKIWSQKSGMERCRILLEAARIIREREDEIATMECINNGKSIFEARLDIDISWQCLEYYAGLAASMAGEHIQLPGGSFGYTRREPLGVCVGIGAWNYPFQIASWKSAPALACGNAMVFKPSPFTPVSALLLAEIYSEAGVPPGLFNVVQGGAATGQFLCQHPDVAKVSFTGSVPTGMKIMEMSAKGIKPVTLELGGKSPLIIFSDCDMNNAVKGALMANFLTQGQVCCNGTRVFVQKEILDKFTEEVVKQTQRIKIGDPLLEDTRMGPLINRPHLERVLGFVKVAKEQGAKVLCGGDIYVPEDPKLKDGYYMRPCVLTNCRDDMTCVKEEIFGPVMSILSFDTEAEVLERANDTTFGLAAGVFTRDIQRAHRVVAELQAGTCFINNYNVSPVELPFGGYKKSGFGRENGRVTIEYYSQLKTVCVEMGDVESAF
- Fold changes, HaCat, DLG1_1 [2, 4]: 0.7692
- Fold changes, HaCat, DLG1_2 [2, 5]: 1.032
- Fold changes, HaCat, SCRIB_1 [2, 6]: 3.899
- Fold changes, HaCat, SCRIB_2 [2, 7]: 0.6746
- Fold changes, HaCat, SNX27 [2, 8]: 57.4815
- Fold changes, HaCat, TX1BP3 [2, 9]: 0.8437
- Fold changes, HeLa, DLG1_1 [1, 4]: 0.965
- Fold changes, HeLa, DLG1_2 [1, 5]: 0.6499
- Fold changes, HeLa, SCRIB_1 [1, 6]: 1.5654
- Fold changes, HeLa, SCRIB_2 [1, 7]: 0.9621
- Fold changes, HeLa, SNX27 [1, 8]: 23.2299
- Fold changes, HeLa, TX1BP3 [1, 9]: 0.8902
- Fold changes, Jurkat, DLG1_1 [3, 4]: 0.4996
- Fold changes, Jurkat, DLG1_2 [3, 5]: 10.9748
- Fold changes, Jurkat, SCRIB_1 [3, 6]: 0.5795
- Fold changes, Jurkat, SCRIB_2 [3, 7]: 0.6928
- Fold changes, Jurkat, SNX27 [3, 8]: 23.7963
- Fold changes, Jurkat, TX1BP3 [3, 9]: 0.5031

B3: TAX1BP3 (protein, UniProt O14907 2-124, looked up)
Tax1-binding protein 3: SYIPGQPVTAVVQRVEIHKLRQGENLILGFSIGGGIDQDPSQNPFSEDKTDKGIYVTRVSEGGPAEIAGLQIGDKIMQVNGWDMTMVTHDQARKRLTKRSEEVVRLLVTRQSLQKAVQQSMLS
- Difference log2 [2]: 10.0746
- Ratio TX1BP3/MBP [2]: 1078.31
- Ratio ([1]; bait TX1BP3 PDZ vs MBP control): 86.5427
- Difference ([1]; bait TX1BP3 PDZ vs MBP control): 6.435
- Difference log2 ([3]; bait DLG1_1 PDZ vs MBP): 4.078
- Ratio DLG1_1 / MBP ([3]; bait DLG1_1 PDZ, fold change of prey): 16.8941
- Difference log2 ([3]; bait TX1BP3 PDZ vs MBP): 12.2171
- Ratio TX1BP3/MBP ([3]; bait TX1BP3 PDZ, fold change of prey): 4761.06

B4: TX1BP3 (protein, UniProt O14907 2-124, looked up)
Tax1-binding protein 3: SYIPGQPVTAVVQRVEIHKLRQGENLILGFSIGGGIDQDPSQNPFSEDKTDKGIYVTRVSEGGPAEIAGLQIGDKIMQVNGWDMTMVTHDQARKRLTKRSEEVVRLLVTRQSLQKAVQQSMLS
- Difference log2 [2]: 9.132
- Ratio TX1BP3/MBP [2]: 561.056
